This data set deals with T1, TTHA0973 (PaaR, TetR family) (Thermus thermophilus HB8) (UniProt Q5SJN5).
T1 sequence: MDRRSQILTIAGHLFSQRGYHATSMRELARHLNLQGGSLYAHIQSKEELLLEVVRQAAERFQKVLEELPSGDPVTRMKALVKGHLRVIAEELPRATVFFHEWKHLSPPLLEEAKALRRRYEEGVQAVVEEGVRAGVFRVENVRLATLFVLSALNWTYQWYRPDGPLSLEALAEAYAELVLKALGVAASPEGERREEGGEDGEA
Description: BLI. The note with it: BLI with 11, 33, 100, 300 nM TTHA0973; EMSA 0-100 nM; buffer, salt, pH, temperature not given (cited protocol).

For “CTAGGAATTCGTGCAGAGGTGAATACCTAGCGTTACTTTTACCATCCCTCCAGAAGCTTGGACA (double strand) [ST2_0973_0647bp]”, the Kd stood at 99.5 nM.

A word on the Kd: it is the free concentration of one partner at which half of the binding sites on the other are occupied at equilibrium, for simple one-to-one binding.

The values above are taken from publication PMC6651687.
